The target in the data set is NELF complex WT (NELF-A/B/C-D/E) (human, UniProt Q9H3P2;Q8WX92;Q8IXH7;P18615 1-528;49-628;1-590;1-380). The data set is described as follows: fluorescence anisotropy; NELF-TAR complex: 20 mM HEPES/NaOH pH 7.4, 150 mM NaCl, 10% glycerol, 1 mM DTT, mixed 30 min at 4 C; anisotropy conditions only by reference [29]; Hsh49-Cus1-U2 reconstituted 30 min on ice; Dnmt2 dialysed in 50 mM HEPES pH 7.5, 150 mM NaCl, 2 mM DTT. The settings on record: protein: recombinant; copies: 1;1;1;1; hairpin. On the technique in general: Fluorescence polarisation rises when a labelled molecule tumbles more slowly, as on binding a larger partner.
NELF complex WT (NELF-A/B/C-D/E), sequence (Q9H3P2 whole entry, chain 1 of 4): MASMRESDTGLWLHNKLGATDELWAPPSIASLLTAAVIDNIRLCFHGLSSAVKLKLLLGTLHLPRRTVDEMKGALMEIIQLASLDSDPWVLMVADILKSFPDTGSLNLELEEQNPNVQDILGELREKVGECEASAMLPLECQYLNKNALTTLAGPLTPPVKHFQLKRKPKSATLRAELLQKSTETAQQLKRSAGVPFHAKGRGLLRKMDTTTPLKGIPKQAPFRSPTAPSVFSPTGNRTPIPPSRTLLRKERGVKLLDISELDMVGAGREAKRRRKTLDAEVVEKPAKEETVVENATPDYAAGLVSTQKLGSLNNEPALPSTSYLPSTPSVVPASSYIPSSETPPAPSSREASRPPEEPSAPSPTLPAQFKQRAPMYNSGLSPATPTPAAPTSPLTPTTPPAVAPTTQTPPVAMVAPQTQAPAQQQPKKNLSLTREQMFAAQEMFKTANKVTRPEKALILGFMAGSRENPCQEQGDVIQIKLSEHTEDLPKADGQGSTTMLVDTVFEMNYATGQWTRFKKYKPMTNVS
NELF complex WT (NELF-A/B/C-D/E), sequence (Q8WX92 whole entry, chain 2 of 4): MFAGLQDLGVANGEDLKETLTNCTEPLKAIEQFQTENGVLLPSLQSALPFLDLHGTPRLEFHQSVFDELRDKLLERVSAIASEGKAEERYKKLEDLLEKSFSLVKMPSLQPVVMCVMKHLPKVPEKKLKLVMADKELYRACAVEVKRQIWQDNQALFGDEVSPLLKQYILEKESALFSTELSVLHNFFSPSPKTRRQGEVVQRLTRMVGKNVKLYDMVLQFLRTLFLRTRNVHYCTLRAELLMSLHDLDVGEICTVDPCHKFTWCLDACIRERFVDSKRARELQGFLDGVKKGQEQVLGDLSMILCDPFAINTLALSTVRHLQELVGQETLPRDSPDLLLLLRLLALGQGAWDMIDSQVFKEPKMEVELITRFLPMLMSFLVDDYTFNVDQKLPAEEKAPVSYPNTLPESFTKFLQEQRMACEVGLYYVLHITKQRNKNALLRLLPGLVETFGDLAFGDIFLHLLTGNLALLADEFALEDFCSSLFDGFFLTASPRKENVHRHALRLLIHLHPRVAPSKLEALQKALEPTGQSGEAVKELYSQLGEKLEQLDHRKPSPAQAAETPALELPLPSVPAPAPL
NELF complex WT (NELF-A/B/C-D/E), sequence (Q8IXH7 whole entry, chain 3 of 4): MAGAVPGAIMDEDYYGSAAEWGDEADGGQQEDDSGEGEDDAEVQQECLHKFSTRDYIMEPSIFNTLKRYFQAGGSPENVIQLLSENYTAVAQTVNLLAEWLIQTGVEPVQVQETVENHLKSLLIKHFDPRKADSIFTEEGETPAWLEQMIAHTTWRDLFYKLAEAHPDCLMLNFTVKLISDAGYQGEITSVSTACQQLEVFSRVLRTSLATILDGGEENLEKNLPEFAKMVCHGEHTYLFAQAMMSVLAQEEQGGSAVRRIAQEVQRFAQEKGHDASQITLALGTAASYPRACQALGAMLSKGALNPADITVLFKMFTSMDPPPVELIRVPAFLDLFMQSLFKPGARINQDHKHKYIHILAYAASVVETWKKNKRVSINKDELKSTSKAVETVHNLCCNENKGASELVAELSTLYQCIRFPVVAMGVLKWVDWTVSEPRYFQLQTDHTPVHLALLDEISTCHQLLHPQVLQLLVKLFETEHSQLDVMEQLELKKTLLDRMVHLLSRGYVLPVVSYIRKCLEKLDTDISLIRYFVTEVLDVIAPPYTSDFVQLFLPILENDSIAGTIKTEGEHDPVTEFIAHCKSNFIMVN
NELF complex WT (NELF-A/B/C-D/E), sequence (P18615 whole entry, chain 4 of 4): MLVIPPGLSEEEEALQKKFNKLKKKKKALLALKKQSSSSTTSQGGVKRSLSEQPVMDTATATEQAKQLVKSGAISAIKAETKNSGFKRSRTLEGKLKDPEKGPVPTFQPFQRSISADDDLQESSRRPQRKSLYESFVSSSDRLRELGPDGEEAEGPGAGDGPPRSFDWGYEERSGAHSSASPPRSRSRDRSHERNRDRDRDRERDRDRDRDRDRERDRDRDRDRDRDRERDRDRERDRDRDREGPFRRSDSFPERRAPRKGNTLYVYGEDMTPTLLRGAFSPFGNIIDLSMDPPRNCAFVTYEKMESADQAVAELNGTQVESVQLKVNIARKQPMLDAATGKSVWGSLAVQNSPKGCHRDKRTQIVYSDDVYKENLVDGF

This note sets out measurements from paper PMC12359043, “Chemical crosslinking extends and complements UV crosslinking in analysis of RNA/DNA nucleic acid–protein interaction sites by mass spectrometry”.

In the case of CCAGAUCUGAGCCUGGGAGCUCUCUGG (structured_RNA) [HIV-1 TAR stem-loop RNA], the binding result was “binds”.
